Literature values as cited in PMC5450005.
Read-outs that look alike come from different tables or passages of the source.

What was measured:
[1] = target: ApelinR (Rattus norvegicus) (UniProt Q9JHG3)
[2] = target: ApelinR (Rattus norvegicus) (UniProt Q9JHG3); remark: listed apart in the source

UniProt Q9JHG3, sequence (Q9JHG3 whole entry): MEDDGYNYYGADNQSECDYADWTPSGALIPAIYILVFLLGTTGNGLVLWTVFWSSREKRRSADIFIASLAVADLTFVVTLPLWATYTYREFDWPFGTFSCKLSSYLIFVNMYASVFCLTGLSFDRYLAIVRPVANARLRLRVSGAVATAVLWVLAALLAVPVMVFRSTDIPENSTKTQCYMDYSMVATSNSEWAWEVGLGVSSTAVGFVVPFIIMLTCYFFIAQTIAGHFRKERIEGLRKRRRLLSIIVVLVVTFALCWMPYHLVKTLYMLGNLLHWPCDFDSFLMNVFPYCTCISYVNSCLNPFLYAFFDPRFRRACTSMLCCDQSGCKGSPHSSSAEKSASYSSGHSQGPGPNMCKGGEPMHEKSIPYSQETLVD

Ki [1]	Ki [2]	Substance
0.06 nM		K17F (apelin-17) (from UniProt Q9ULZ1)
	0.56 nM	pE13F (apelin-13) (from UniProt Q9ULZ1)
